Key:
[1] = biological target: anti-Jo-1 antibodies (commercially available, from human patient samples) (human); test: immunodepletion: HRS polypeptide on NHS-agarose (Affi-gel 10), anti-Jo-1 antibodies (RDL) at 1:1,000, titre by ELISA before and after
[2] = biological target: anti-Jo-1 antibodies (commercially available, from human patient samples) (human); test: competitive ELISA: soluble competitor pre-incubated with anti-Jo-1 serum; competitor is plate-bound full-length human wild-type HisRS; A450
[3] = biological target: anti-Jo-1 antibodies (commercially available, from human patient samples) (human); test: competitive ELISA, full-length histidyl-tRNA synthetase on the plate
[4] = biological target: anti-Jo-1 antibodies (commercially available, from human patient samples) (human); test: competitive ELISA: soluble competitor pre-incubated with anti-Jo-1 serum; competitor is plate-bound full-length wild-type HisRS; A450
[5] = biological target: anti-Jo-1 antibodies (commercially available, from human patient samples) (human); test: competitive ELISA: soluble HisRS pre-incubated with anti-Jo-1 human serum at 1:2,000; competitor is plate-bound full-length wild-type HisRS; A450

B1: HRS(1-506) (enzyme)
chain: MAERAALEELVKLQGERVRGLKQQKASAELIEEEVAKLLKLKAQLGPDESKQKFVLKTPKGTRDYSPRQMAVREKVFDVIIRCFKRHGAEVIDTPVFELKETLMGKYGEDSKLIYDLKDQGGELLSLRYDLTVPFARYLAMNKLTNIKRYHIAKVYRRDNPAMTRGRYREFYQCDFDIAGNFDPMIPDAECLKIMCEILSSLQIGDFLVKVNDRRILDGMFAICGVSDSKFRTICSSVDKLDKVSWEEVKNEMVGEKGLAPEVADRIGDYVQQHGGVSLVEQLLQDPKLSQNKQALEGLGDLKLLFEYLTLFGIDDKISFDLSLARGLDYYTGVIYEAVLLQTPAQAGEEPLGVGSVAAGGRYDGLVGMFDPKGRKVPCVGLSIGVERIFSIVEQRLEALEEKIRTTETQVLVASAQKKLLEERLKLVSELWDAGIKAELLYKKNPKLLNQLQYCEEAGIPLVAIIGEQELKDGVIKLRSVTSREEVDVRREDLVEEIKRRTGQPL
percent of detectable Jo-1 antibodies removed [1]: < 99%
IC50 (read off the curve) [2]: 0.3 nM

B2: Resokine (HRS(1-60)), His-tagged (peptide)
chain: MAERAALEELVKLQGERVRGLKQQKASAELIEEEVAKLLKLKAQLGPDESKQKFVLKTPKHHHHHH
concentration above which competition is seen [3]: > 100 nM
percent of detectable Jo-1 antibodies removed [1]: 20%

B3: Full-length histidyl-tRNA synthetase (HRS), His-tagged (enzyme)
chain: MAERAALEELVKLQGERVRGLKQQKASAELIEEEVAKLLKLKAQLGPDESKQKFVLKTPKGTRDYSPRQMAVREKVFDVIIRCFKRHGAEVIDTPVFELKETLMGKYGEDSKLIYDLKDQGGELLSLRYDLTVPFARYLAMNKLTNIKRYHIAKVYRRDNPAMTRGRYREFYQCDFDIAGNFDPMIPDAECLKIMCEILSSLQIGDFLVKVNDRRILDGMFAICGVSDSKFRTICSSVDKLDKVSWEEVKNEMVGEKGLAPEVADRIGDYVQQHGGVSLVEQLLQDPKLSQNKQALEGLGDLKLLFEYLTLFGIDDKISFDLSLARGLDYYTGVIYEAVLLQTPAQAGEEPLGVGSVAAGGRYDGLVGMFDPKGRKVPCVGLSIGVERIFSIVEQRLEALEEKIRTTETQVLVASAQKKLLEERLKLVSELWDAGIKAELLYKKNPKLLNQLQYCEEAGIPLVAIIGEQELKDGVIKLRSVTSREEVDVRREDLVEEIKRRTGQPLCICAAALEHHHHHH
percent of detectable Jo-1 antibodies removed [1]: 93%
IC50 (read off the curve) [4]: 0.03 nM
IC50 (read off the curve) [2]: 0.3 nM
IC50 (read off the curve) [5]: 0.8 nM

Reference: patent US20150093799A1
